Results on two molecules are retold here after US20030219436A1.

In assay [1] the target is ligand(s) that bind to CD83, on mouse cells (PBMC monocytes, lymph node lymphocytes, splenocytes). The assay can be described thus: flow cytometry on mouse PBMC.
Assay [2] has the same target. Briefly: flow cytometry on mouse splenocytes.
Assay [3] shares this target. Briefly: flow cytometry on mouse lymph node lymphocytes.
Assay [4] deals with ligand(s) that bind to CD83, on human peripheral blood cells (monocytes, some lymphocytes). Briefly: flow cytometry on fresh human PBMC, biotinylated CD83Ig + PE streptavidin. For orientation: A flow cytometer gives signals particle by particle.

As for “human CD83-hIgG1 fusion protein (extracytoplasmic domain of human CD83 with a human IgG1 tail) (Fc fusion)”, in assay [1], the percent of cells bound (monocytes in peripheral blood) was determined as 90%. In assay [2], this molecule gave a percent of cells bound (non-T cell population of splenocytes) of 15%. For the same molecule, the percent of cells bound (lymphocytes from lymph nodes) in assay [3] is less than 5%. In assay [4], the percent of cells bound (CD3+ cells, lymphocyte gate) is less than 1%; the percent of cells bound (CD3- cells, lymphocyte gate) came out at 4%; the percent of cells bound (larger cell scatter gate, monocytes) is more than 75%.

B1: human CD83 murine Ig fusion protein (human CD83 extracellular domain upstream of the murine IgG2a Fc domain) (Fc fusion)
chain: MSRGLQLLLLSCAYSLAPATPEVKVACSEDVDLPCTAPWDPQVPYTVSWVKLLEGGEERMETPQEDHLRGQHYHQKGQNGSFDAPNERPYSLKIRNTTSCNSGTYRCTLQDPDGQRNLSGKVILRVTGCPAQRKEETFKKYRAERSEPRGPTIKPCPPCKCPAPNSAGTSSVFIFPPKIKDVLMISLSPIVTCVVVDVSEDDPDVQISWFVNNVEVHTAQTQTHREDYNSTLRVVSALPIQHQDWMSGKEFKCKVNNKDLPAPIERTISKPKGSVRAPQVYVLPPPEEEMTKKQVTLTCMVTDFMPEDIYVEWTNNGKTELNYKNTEPVLDSDGSYFMYSKLRVEKKNWVERNSYSCSVVHEGLHNHHTTKSFSRTPGK
B1 came in with a percent of cells bound (monocytes in peripheral blood) in assay [1] of 90%. The percent of cells bound (non-T cell population of splenocytes) in assay [2] was 15%. In assay [3], this molecule came in with a percent of cells bound (lymphocytes from lymph nodes) of less than 5%.
